US20240043533A1 (NGM BIOPHARMACEUTICALS, published 2024)
Read-outs that look alike come from different tables or passages of the source. One block for each binder: values may come before it.

Tests used:
LILRB4 = target: T1, LILRB4; assay: FACS on cells expressing human LILRB4 (ILT3), labeled anti-mouse Fc secondary antibody
T1 construct: the construct expressed on the cells is not described further; also called human ILT3 expressed on cells for the FACS screen; ILT3
Experimental: (§1) ELISA assays were used to screen antibodies against human ILT3 and human LILRA1,2,4-6. […] These antibodies were rescreened by FACS for binding to human ILT3 and cyno ILT3 expressed on HEK-293T cells. The antibodies that bound to both human and cyno ILT3 were selected. This subset of antibodies were screened by FACS against human LILRB1-5 (ILT2, ILT4, ILT5, ILT3, and LILRB5, respectively), cyno LILRB5, and human LILRA1,2,4-6. For FACS screening, each antibody was incubated with cells expressing human ILT3, cyno ILT3, one of the LILRA proteins, or one of the LILRB proteins for 30 minutes at 4° C. After washing, the cells were incubated with labeled anti-mouse Fc antibody for 30 minutes at 4° C. After washing, cells were analyzed on a flow cytometer. Antibodies were selected on the criteria of binding to human ILT3, cyno ILT3, no or limited binding to other LILRB proteins, and no or limited binding to LILRA proteins.

[1] = target: T2, extracellular domain of cyno ILT3 (cynoILT3-ECD) (cynomolgus monkey); assay: SPR (Biacore), antibody captured via anti-Fc on CM5 chip, soluble ILT3-ECD injected, 37 C
T2 chain: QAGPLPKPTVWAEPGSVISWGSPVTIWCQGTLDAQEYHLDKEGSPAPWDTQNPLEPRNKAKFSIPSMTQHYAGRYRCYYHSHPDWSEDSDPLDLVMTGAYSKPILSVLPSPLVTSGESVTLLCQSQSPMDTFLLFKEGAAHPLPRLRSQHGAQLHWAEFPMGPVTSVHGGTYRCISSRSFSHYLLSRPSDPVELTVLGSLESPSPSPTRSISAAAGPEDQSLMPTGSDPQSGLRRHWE
Experimental: (§2) The binding affinities of anti-ILT3 antibodies to human ILT3 and cyno ILT3 were measured using a Biacore system (GE Healthcare LifeSciences). Briefly, anti-Fc antibody (Sigma-Aldrich) was immobilized on all four flow cells of a CM5 chip using amine coupling reagents (GE Healthcare LifeSciences). Antibodies were captured on flow cells 2, 3, and 4 using flow cell 1 as a reference. Concentrations ranging from 3.3-10 nM of human or cyno ILT3-ECD were injected at a flow rate of 50 μL/min at 37° C. Kinetic data were collected over time and fit using the simultaneous global fit equation to yield affinity constants (KD values) for each antibody.

[2] = target: T3, extracellular domain of human ILT3 (huILT3-ECD) (human, UniProt Q8NHJ6 22-259); assay: as above
T3 construct: also called human ILT3-ECD
Experimental: as §2

human LILRA5 = target: T4, human LILRA5 (human, UniProt A6NI73 42-299); assay: FACS on cells expressing human LILRA5, labeled anti-mouse Fc secondary antibody
T4 construct: whole, on cells
Experimental: as §1

[3] = target: ILT3 extracellular domain chimeric receptor on NFAT-GFP reporter cells (human); assay: cell-based or functional assay
LILRB5 = target: T5, LILRB5 (human, UniProt O75023); assay: FACS on cells expressing human LILRB5, labeled anti-mouse Fc secondary antibody
T5 construct: expressed on the cell surface; also called human LILRB5; CD85C
Experimental: as §1

human LILRA6 = target: T6, human LILRA6 (human, UniProt Q6PI73 24-447, limits assumed); assay: FACS on cells expressing human LILRA6, labeled anti-mouse Fc secondary antibody
T6 construct: Read out of the printed 'LILRA1,2,4-6'
Experimental: as §1

human LILRA2 = target: T7, human LILRA2 (human, UniProt Q8N149 24-483); assay: FACS on cells expressing human LILRA2, labeled anti-mouse Fc secondary antibody
T7 construct: whole, on cells
Experimental: as §1

human LILRA1 = target: T8, human LILRA1 (human, UniProt O75019 17-489); assay: FACS on cells expressing human LILRA1, labeled anti-mouse Fc secondary antibody
T8 construct: whole, on cells
Experimental: as §1

human LILRB2 = target: T9, human LILRB2 (human, UniProt Q8N423 22-597); assay: FACS on cells expressing human LILRB2, labeled anti-mouse Fc secondary antibody
T9 construct: whole, on cells; also called ILT4
Experimental: as §1

human LILRA4 = target: T10, human LILRA4 (human, UniProt P59901 24-499); assay: FACS on cells expressing human LILRA4, labeled anti-mouse Fc secondary antibody
T10 construct: whole, on cells
Experimental: as §1

Cyno LILRB5 = target: T11, Cyno LILRB5 (Macaca fascicularis, UniProt A0A2K5VIP6); assay: FACS on cells expressing cyno LILRB5, labeled anti-mouse Fc secondary antibody
T11 construct: expressed on the cell surface; also called cynomolgus LILRB5
Experimental: as §1

[4] = target: human ILT3 expressed on myeloid cells (THP-1 cells, primary dendritic cells, macrophages) (human, UniProt Q8NHJ6 22-448); assay: cell-based or functional assay
[5] = target: T12, ILT3ECD-Fc (human ILT3 extracellular domain fused to an immunoglobulin Fc region) (human, UniProt Q8NHJ6 22-259); assay: blocking of the binding of ILT3-ECD-Fc (1 µg/mL) to endogenous fibronectin on Detroit 551 cells; imaging with polyclonal anti-ILT3 and AlexaFluor 647 secondary antibody
T12 construct: also called Human ILT3ECD-Fc; not shown: immunoglobulin Fc region
Experimental: FIG. 14. ILT3 binding to endogenously expressed fibronectin. Detroit 551 cells were plated onto poly-D-lysine-coated 384-well plates at 6×10³ cells/well and incubated for two days. Monolayers were rinsed with HBSS containing Mg²⁺ and Ca²⁺. ILT3-ECD-Fc was added to the wells in the presence of ant-ILT3 antibody 16C5, anti-ILT3 antibody ch5A7, or control anti-KLH antibody. The antibodies were serially diluted 3-fold in media containing the ILT3-ECD-Fc (range of 66 nM to 0.27 nM). Cells were incubated for 1 hr at room temperature and then washed three times with HBSS and fixed with 3.7% formalin for 10 min. Monolayers were rinsed with PBS and blocked with 1% BSA in PBS before staining with Hoechst stain and a commercially available polyclonal anti-ILT3 antibody. An AlexaFluor 647-conjugated rabbit anti-goat Fc secondary antibody was added, cells were imaged, and the level of fluorescence was quantified using a CellInsight imaging system.
The Detroit 551 cell line is composed of human skin fibroblasts established from normal fetal tissue. These cells have endogenously produced fibronectin bound to receptors on their surface. […] An AlexaFluor 647-conjugated rabbit anti-goat Fc secondary antibody (Jackson ImmunoResearch Labs) was added, cells were imaged, and the level of fluorescence was quantified using a Celllnsight imaging system.

LILRB3 = target: T13, LILRB3 (human, UniProt O75022); assay: FACS on cells expressing human LILRB3, labeled anti-mouse Fc secondary antibody
T13 construct: expressed on the cell surface; also called human LILRB3; ILT5
Experimental: as §1

collagen type IV = target: T14, collagen type IV; assay: SPR (Biacore), collagen type IV amine-coupled on CM5 chip, LAIR1ECD-Fc injected at 125-4000 nM, 37 C
T14 construct: Control surface in the Biacore experiment; also called collagen IV
Experimental: (§3) The binding of ILT3 to fibronectin was evaluated by Biacore. Human plasma fibronectin was immobilized onto a CM5 sensor chip surface (flow cell 2) using standard amine coupling chemistry. Collagen type IV was immobilized onto flow cell 3 and used as a control. Human ILT3ECD-Fc or human LAIR1ECD-Fc were injected over both surfaces at different concentrations (125-4000 nM) at a flow rate of 50 μL/min at 37° C. Kinetic data were collected over time and fit using the simultaneous global fit equation to yield affinity constants (KD values) for each antibody.

[6] = target: T15, human plasma-derived fibronectin (Millipore) (human, UniProt P02751 32-2477); assay: SPR (Biacore), human plasma fibronectin amine-coupled on CM5 chip, ECD-Fc injected, 37 C
T15 construct: Bought protein; also called human plasma fibronectin; human fibronectin
Experimental: as §3

[7] = target: T16, cynomolgus ILT3 expressed on cells (THP-1 reporter cells transduced with cyno ILT3); cyno monocyte-derived … (cynomolgus monkey); assay: cell-based or functional assay
T16 chain: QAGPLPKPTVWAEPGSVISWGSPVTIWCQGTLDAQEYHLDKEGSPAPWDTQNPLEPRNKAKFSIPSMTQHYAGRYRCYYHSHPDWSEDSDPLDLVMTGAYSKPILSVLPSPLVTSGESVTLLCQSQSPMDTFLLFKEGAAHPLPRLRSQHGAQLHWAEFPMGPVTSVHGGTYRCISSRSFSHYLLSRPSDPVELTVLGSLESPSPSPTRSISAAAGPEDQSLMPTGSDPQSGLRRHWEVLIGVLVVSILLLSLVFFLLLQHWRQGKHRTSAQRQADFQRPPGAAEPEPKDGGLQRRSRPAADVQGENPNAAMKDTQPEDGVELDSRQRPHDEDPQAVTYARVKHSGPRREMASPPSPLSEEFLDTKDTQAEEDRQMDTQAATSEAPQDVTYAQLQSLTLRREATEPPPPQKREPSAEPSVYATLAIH

[8] = target: T2, extracellular domain of cyno ILT3 …; assay: SPR (Biacore), antibody captured via anti-Fc on CM5 chip, soluble ILT3-ECD injected, 37 C
Experimental: as §2
(§4) The binding affinity of Hz5A7.v5 to human ILT3 and cyno ILT3 was determined using a Biacore system as described herein and compared with the binding affinity of the parental chimeric 5A7 (ch5A7) antibody and humanized 5A7 without any CDR modifications (Hz5A7.v1) (see Table 12).

[9] = target: T3, extracellular domain of human ILT3 …; assay: as above; remark: listed apart in the source
Experimental: as §2, §4

T11 sequence (A0A2K5VIP6 entry or part of it): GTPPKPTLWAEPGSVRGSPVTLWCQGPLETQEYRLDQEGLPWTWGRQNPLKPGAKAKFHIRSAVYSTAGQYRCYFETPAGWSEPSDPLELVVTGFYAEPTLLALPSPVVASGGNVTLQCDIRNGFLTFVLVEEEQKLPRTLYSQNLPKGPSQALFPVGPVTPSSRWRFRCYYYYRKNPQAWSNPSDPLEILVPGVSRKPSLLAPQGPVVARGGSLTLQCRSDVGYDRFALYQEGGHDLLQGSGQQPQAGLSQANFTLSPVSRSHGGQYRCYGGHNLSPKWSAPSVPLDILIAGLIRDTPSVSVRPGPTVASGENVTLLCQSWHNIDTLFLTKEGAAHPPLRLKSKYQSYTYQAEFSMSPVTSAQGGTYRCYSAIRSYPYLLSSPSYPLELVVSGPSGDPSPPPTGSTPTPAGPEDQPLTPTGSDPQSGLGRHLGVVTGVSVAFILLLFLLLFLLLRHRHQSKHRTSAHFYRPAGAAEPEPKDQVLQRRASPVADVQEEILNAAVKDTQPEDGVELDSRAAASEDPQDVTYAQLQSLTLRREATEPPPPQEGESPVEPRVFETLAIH
T4 sequence (A6NI73 42-299): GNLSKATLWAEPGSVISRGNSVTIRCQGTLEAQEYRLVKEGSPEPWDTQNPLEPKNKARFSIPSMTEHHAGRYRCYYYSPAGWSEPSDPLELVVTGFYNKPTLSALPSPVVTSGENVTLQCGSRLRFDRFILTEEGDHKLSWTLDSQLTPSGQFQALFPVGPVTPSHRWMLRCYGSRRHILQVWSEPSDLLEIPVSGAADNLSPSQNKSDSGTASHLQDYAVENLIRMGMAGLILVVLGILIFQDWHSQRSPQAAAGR
T5 sequence (O75023 24-590 limits assumed): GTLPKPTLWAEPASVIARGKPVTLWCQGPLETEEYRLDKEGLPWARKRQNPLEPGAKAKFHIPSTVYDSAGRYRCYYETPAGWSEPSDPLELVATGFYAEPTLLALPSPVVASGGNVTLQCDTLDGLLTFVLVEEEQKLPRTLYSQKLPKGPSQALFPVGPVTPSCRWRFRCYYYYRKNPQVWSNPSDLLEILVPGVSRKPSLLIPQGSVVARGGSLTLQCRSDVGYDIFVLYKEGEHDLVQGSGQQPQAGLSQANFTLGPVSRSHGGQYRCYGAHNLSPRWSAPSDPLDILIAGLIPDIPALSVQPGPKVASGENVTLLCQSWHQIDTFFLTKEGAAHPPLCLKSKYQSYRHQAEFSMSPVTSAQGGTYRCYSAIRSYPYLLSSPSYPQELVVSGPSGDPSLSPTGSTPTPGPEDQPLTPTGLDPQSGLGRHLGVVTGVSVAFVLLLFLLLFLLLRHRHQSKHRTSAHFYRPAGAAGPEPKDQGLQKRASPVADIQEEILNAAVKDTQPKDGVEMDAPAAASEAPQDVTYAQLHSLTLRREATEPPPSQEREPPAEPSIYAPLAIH
T6 sequence (Q6PI73 24-447 limits assumed): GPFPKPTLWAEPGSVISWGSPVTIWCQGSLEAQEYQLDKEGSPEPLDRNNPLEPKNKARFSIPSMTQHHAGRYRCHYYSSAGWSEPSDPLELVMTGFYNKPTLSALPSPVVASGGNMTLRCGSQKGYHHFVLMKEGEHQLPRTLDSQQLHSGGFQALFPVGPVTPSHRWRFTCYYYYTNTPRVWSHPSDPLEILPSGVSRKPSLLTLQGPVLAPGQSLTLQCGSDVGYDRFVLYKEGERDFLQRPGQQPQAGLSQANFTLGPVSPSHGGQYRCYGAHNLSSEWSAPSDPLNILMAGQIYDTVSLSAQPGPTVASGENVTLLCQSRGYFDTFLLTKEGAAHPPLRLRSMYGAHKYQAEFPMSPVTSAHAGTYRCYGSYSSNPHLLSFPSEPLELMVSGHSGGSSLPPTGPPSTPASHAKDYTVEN
ILT3 extracellular domain chimeric receptor on NFAT-GFP reporter cells (human), sequence (Q8NHJ6 22-259, change not shown): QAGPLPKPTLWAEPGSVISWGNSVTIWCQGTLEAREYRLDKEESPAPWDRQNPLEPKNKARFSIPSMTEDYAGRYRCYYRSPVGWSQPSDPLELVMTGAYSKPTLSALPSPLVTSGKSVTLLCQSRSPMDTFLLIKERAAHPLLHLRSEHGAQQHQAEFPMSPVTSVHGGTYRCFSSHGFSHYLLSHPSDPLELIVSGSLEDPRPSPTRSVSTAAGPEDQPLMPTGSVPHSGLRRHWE
T7 sequence (Q8N149 24-483): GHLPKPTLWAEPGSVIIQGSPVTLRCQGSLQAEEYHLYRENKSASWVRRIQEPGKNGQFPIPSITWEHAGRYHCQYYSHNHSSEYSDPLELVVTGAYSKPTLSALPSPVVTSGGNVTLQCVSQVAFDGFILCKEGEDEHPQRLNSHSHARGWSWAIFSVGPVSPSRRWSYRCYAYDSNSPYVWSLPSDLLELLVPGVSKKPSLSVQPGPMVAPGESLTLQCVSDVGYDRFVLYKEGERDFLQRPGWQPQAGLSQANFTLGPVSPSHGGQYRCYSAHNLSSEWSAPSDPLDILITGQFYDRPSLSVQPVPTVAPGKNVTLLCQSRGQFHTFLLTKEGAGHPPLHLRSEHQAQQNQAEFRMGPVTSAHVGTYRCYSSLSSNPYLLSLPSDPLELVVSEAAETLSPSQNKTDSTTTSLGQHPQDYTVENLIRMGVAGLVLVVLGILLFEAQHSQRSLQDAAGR
T1 sequence (receptor, as listed by the source limits assumed): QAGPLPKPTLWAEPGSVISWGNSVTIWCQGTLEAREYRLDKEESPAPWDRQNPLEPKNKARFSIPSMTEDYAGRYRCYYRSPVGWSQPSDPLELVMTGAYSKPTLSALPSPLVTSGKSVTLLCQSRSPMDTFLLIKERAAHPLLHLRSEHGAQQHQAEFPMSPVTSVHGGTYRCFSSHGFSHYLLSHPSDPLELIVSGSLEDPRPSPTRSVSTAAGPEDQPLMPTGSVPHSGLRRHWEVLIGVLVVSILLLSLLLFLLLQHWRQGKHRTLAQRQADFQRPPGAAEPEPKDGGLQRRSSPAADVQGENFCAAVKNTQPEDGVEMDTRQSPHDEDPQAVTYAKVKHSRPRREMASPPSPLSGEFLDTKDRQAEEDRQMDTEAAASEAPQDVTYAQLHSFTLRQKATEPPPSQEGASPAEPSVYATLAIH
T13 sequence (O75022 24-631 limits assumed): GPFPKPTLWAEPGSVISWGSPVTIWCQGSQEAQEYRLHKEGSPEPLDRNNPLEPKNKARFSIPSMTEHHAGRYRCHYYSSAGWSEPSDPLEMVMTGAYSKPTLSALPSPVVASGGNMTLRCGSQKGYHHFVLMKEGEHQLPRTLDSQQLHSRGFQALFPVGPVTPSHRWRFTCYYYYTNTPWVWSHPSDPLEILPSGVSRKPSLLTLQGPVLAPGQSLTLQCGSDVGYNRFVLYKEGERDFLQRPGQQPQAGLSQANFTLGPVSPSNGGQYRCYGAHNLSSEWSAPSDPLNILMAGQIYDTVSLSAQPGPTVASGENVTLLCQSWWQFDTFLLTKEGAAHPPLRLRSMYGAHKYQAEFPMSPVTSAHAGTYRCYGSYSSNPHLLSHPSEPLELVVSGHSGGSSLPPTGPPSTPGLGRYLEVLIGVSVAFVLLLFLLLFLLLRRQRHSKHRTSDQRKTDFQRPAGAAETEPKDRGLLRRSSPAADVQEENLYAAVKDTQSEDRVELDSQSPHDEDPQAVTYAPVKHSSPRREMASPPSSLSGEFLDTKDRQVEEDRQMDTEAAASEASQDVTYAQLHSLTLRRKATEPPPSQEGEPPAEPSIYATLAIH
T8 sequence (O75019 17-489): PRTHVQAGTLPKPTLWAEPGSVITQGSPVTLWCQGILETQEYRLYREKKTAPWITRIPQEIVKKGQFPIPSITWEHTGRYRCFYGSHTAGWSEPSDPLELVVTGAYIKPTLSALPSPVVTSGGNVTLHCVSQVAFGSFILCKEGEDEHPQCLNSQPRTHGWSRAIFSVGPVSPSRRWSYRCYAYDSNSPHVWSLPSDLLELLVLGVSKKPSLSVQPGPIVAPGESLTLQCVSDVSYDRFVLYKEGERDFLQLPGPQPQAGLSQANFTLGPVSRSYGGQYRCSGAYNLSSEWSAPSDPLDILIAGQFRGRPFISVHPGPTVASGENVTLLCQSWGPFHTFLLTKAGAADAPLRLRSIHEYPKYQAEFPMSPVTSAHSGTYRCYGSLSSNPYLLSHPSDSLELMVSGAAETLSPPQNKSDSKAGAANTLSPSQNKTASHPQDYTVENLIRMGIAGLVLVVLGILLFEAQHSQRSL
T10 sequence (P59901 24-499): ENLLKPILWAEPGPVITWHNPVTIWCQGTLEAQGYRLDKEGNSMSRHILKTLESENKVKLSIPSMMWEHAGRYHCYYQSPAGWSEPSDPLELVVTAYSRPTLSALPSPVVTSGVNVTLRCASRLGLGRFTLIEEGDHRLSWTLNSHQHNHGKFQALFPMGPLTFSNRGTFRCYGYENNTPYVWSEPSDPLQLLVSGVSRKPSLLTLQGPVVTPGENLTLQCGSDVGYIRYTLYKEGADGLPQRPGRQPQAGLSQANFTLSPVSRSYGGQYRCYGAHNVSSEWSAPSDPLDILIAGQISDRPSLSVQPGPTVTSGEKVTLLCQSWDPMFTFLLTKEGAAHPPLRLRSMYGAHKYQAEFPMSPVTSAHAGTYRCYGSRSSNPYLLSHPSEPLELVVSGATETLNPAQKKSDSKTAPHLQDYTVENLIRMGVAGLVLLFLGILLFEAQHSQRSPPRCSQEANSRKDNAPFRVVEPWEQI

binding result (LILRB4): binds | Kd [1]: 0.31 nM | koff [1]: 9e-05 s⁻¹ | kon [1]: 290000 M⁻¹ s⁻¹ | Kd [2]: 1.8 nM | koff [2]: 0.0002 s⁻¹ | kon [2]: 110000 M⁻¹ s⁻¹ | binding result (human LILRA5): binds | IC50 (read off the curve) [3]: ~0.2 nM | EC50 (read off the curve) (Cyno LILRB5): ~0.9 nM | EC50 (read off the curve) [4]: ~2 nM | binding result [5]: binds
B1: anti-ILT3 antibody 16C5 (antibody, V domains shown)
VH: EVQLQQSGPELVKPGASVKISCKASGYTFTDYNMDWVKQSHGKSLEWIGYIYPSNGGTGYNQKFKSKATLTVDKSSNTAYMELHSLTSEDSAVYYCARVPYYDYLYYYAMDYWGQGTSVTVSS
VL: QIVLSQSPAILSASPGEKVTMACRASSSVSFMHWYQQKPGSSPQPWIYATSNLASGVPARFSGSGSGTSYSLTISRVEAEDAATYYCQQWSTNPYMYTFGGGTKLEIK
notes: Mouse monoclonal antibody from hybridoma
binding result (LILRB5): no binding (tested: log [Ab] about -7.2 M (about 6e-8 M)) | binding result (human LILRA6): no binding (tested: log [Ab] about -7.2 M (about 6e-8 M)) | binding result (human LILRA2): no binding (tested: log [Ab] about -7.2 M (about 6e-8 M)) | binding result (human LILRA1): no binding (tested: log [Ab] about -7.2 M (about 6e-8 M)) | binding result (human LILRB2): no binding (tested: log [Ab] about -7.2 M (about 6e-8 M)) | binding result (human LILRA4): no binding (tested: log [Ab] about -7.2 M (about 6e-8 M)) | binding result (LILRB3): no binding (tested: log [Ab] about -7.2 M (about 6e-8 M))

Kd (collagen type IV): ≥ 5000 nM | binding result [6]: no binding (tested: 125-4000 nM)
B2: human LAIR1ECD-Fc (Fc fusion, UniProt Q6GTX8 22-165, looked up)
chain: QEEDLPRPSISAEPGTVIPLGSHVTFVCRGPVGVQTFRLERDSRSTYNDTEDVSQASPSESEARFRIDSVREGNAGLYRCIYYKPPKWSEQSDYLELLVKESSGGPDSPDTEPGSSAGPTQRPSDNSHNEHAPASQGLKAEHLY
notes: extracellular domain; not shown: Fc region

EC50 (read off the curve) [7]: ~0.2 nM | Kd [8]: 0.7 nM | koff [8]: 0.0071 s⁻¹ | kon [8]: 1.1e+07 M⁻¹ s⁻¹ | Kd [9]: 0.28 nM | koff [9]: 0.00081 s⁻¹ | kon [9]: 2.8e+06 M⁻¹ s⁻¹
B3: anti-ILT3 antibody Hz5A7.v5 (antibody, human IgG1, kappa, N297G, V domains shown)
VH: EVQLVESGGGLVQPGGSLRLSCAASGFTFSSYGMSWVRQAPGKGLEWVATISGGGSYTNYPDSVKGRFTISRDNAKNSLYLQMNSLRAEDTAVYYCARREWRYTLYAMDYWGQGTTVTVSS
VL: DIQLTQSPSFLSASVGDRVTITCRASESVESYGSSFMHWYQQKPGKAPKLLIYLTSNLESGVPSRFSGSGSGTEFTLTISSLQPEDFATYYCQQNNEDPFTFGQGTKLEIKR
notes: Humanized 5A7 variant
